# From patent US20230080534A1 (SHANGHAI BIOTROY BIOTECHNIQUE, published 2023)
# No end group written: not given here.
# T1: AIEKLVEGKSQIQ (not fully specified)
# T1 construct: member of the group m41; the text speaks of glycine substitution, the sheet prints alanine
# T1 peptide: AIEKLVEGKSQIQ
# T2: QIEKLVEGKSAIQ (not fully specified)
# T2 construct: alanine at this position
# T2 peptide: QIEKLVEGKSAIQ
# T3: QIEKLVAGKSQIQ (not fully specified)
# T3 construct: member of the group m41; the text speaks of glycine substitution, the sheet prints alanine
# T3 peptide: QIEKLVAGKSQIQ
# T4: QIEKLVEGKSQIA (not fully specified)
# T4 construct: alanine at this position
# T4 peptide: QIEKLVEGKSQIA
# T5: human SEMG2 full-length protein (human, UniProt Q02383 24-582, limits assumed)
# T5 construct: also called SEMG2 protein; semenogelin 2
# T5 sequence: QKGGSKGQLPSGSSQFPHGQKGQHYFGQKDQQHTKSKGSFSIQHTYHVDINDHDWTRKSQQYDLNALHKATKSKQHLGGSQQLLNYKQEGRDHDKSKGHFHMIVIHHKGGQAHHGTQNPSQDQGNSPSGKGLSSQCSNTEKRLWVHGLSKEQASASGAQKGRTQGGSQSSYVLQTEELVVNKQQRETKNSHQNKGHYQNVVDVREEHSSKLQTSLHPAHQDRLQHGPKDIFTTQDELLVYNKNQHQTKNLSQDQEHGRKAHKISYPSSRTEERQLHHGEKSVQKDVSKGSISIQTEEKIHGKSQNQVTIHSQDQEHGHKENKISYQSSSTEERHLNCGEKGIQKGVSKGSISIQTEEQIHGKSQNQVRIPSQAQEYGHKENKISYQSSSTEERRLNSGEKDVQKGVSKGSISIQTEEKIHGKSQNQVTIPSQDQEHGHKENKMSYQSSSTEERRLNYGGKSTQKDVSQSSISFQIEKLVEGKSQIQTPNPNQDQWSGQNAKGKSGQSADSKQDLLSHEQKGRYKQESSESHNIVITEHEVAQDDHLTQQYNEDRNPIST
# T6: QIEKAVEGKSQIQ (not fully specified)
# T6 construct: alanine at this position
# T6 peptide: QIEKAVEGKSQIQ
# T7: SEMG2(497-509) polypeptide QIEKLVEGKSQIQ (human)
# T7 peptide: QIEKLVEGKSQIQ
# T8: SEMG2(442-453) fragment (human)
# T8 peptide: IHGKSQNQVTIP
# T9: QIAKLVEGKSQIQ (not fully specified)
# T9 construct: member of the group m41; the text speaks of glycine substitution, the sheet prints alanine
# T9 peptide: QIAKLVEGKSQIQ
# T10: SEMG2(354-403) fragment (human)
# T10 peptide: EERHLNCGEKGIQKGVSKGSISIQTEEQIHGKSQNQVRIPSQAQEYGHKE
# T11: QIEKLVEAKSQIQ
# T11 construct: member of the group m41; position 504 is glycine in SEMG2 and the sheet prints alanine there
# T11 peptide: QIEKLVEAKSQIQ
# T12: QIEALVEGKSQIQ (not fully specified)
# T12 construct: member of the group m41; the text speaks of glycine substitution, the sheet prints alanine
# T12 peptide: QIEALVEGKSQIQ
# T13: QAEKLVEGKSQIQ (not fully specified)
# T13 construct: member of the group m41; the text speaks of glycine substitution, the sheet prints alanine
# T13 peptide: QAEKLVEGKSQIQ
# T14: QIEKLVEGKAQIQ (not fully specified)
# T14 construct: alanine at this position
# T14 peptide: QIEKLVEGKAQIQ
# T15: QIEKLVEGASQIQ (not fully specified)
# T15 construct: member of the group m41; the text speaks of glycine substitution, the sheet prints alanine
# T15 peptide: QIEKLVEGASQIQ
# T16: SEMG2(563-574) fragment (human)
# T16 peptide: VAQDDHLTQQYN
# T17: BSA-conjugated human SEMG2 (497-509) polypeptide (human, also: coupled to BSA, site not given here)
# T17 peptide: QIEKLVEGKSQIQ
# T18: QIEKLAEGKSQIQ (not fully specified)
# T18 construct: member of the group m41; the text speaks of glycine substitution, the sheet prints alanine
# T18 peptide: QIEKLAEGKSQIQ
# T19: QIEKLVEGKSQAQ (not fully specified)
# T19 construct: member of the group m41; the text speaks of glycine substitution, the sheet prints alanine
# T19 peptide: QIEKLVEGKSQAQ
# B1: MM05 (antibody, IgG1, V domains shown)
# VH: QVQLQQPGAELVRPGASVKLSCEASGYTFTSYWMNWVKQRPGQGLEWIGMIDPSDSETHYNQMFKDKATLTVDKSSSTAYMQLSSLTSEDSAVYYCARYLGGKEGSFDYWGQGTTLTVSS
# VL: DIVMSQSPSSLAVSAGEKVTMSCKSSQSLLNSRTRKNYLAWYQQKPGQSPKLLIYWASTRESGVPDRFTGSGSGTDFTLTISSVQAEDLAVYYCKQSYSLPWTFGGGTKLEIKR
# B2: 96-10R-10 (antibody, V domains shown)
# VH: QVQLLESGGGLVQPGGSLRLSCSASGFTFSSRAMHWVRQAPGKGLEYVSAISSNGGSTYYADSVKGRFTISRDNSKNTLYLQMSSLRAEDTAVYYCVIEGGSTGSTTSGAFDIWGQGTMVTVSS
# VL: DIQMIQSPPSVSASVGDTVTIACRANQGIDSWLAWYQQKPGRAPKLLIYSASRLQSGVPSRFSGGGSGTDFALTISNLQPEDFATYYCQQALSLPITFGQGTRLEIK
# Assays:
# [1] = target: T1, AIEKLVEGKSQIQ; assay: ELISA, immobilized peptide AIEKLVEGKSQIQ
# Excerpt: (§1) FIG. 20 depicts the value detected by ELISA, i.e., OD₄₅₀ absorbance. […] This experiment is used to determine the precise amino acid epitopes that different monoclonal antibodies bind to, and the relative importance of each amino acid to the binding antibody.
# [2] = target: T2, QIEKLVEGKSAIQ; assay: ELISA, immobilized peptide QIEKLVEGKSAIQ
# Excerpt: as §1
# [3] = target: T3, QIEKLVAGKSQIQ; assay: ELISA, immobilized peptide QIEKLVAGKSQIQ
# Excerpt: as §1
# To further precisely define the exact epitopes (specific to the level of single amino acid) to which blocking antibodies MM02, MM05, MM07, MM08, MM13, MM14 bind, corresponding ELISA analysis method was established. […] Anti-mouse or anti-rabbit secondary antibodies were then used to detect the corresponding bound antibodies.
# [4] = target: T4, QIEKLVEGKSQIA; assay: ELISA, immobilized peptide QIEKLVEGKSQIA
# Excerpt: as §1
# [5] = target: T5, human SEMG2 full-length protein; assay: ELISA, immobilized antigen SEMG2 (1-582)
# Excerpt: (§2) To clearly distinguish the binding epitopes of blocking antibodies (i.e., antibodies that can inhibit the binding between SEMG2 and CD27) and non-blocking antibodies, a corresponding ELISA analysis method was established. […] Anti-mouse or anti-rabbit secondary antibodies were then used to detect the corresponding bound antibodies.
# [6] = target: T5, human SEMG2 full-length protein; assay: ELISA, plate coated with SEMG2 protein, anti-mouse secondary antibody; the EC50 table prints no unit, the axis is log (antibody concentration, nM)
# [7] = target: T6, QIEKAVEGKSQIQ; assay: ELISA, immobilized peptide QIEKAVEGKSQIQ
# Excerpt: as §1
# [8] = target: T5, human SEMG2 full-length protein; assay: ELISA on SEMG2 protein, run beside the humanized antibodies; the EC50 table prints no unit, the axis is log (antibody concentration, nM)
# [9] = target: T7, SEMG2(497-509) polypeptide QIEKLVEGKSQIQ; assay: ELISA, immobilized antigen SEMG2 (497-509)
# Excerpt: as §2
# [10] = target: T5, human SEMG2 full-length protein; assay: biolayer interferometry (ForteBio Blitz or Gator)
# Method: The equilibrium dissociation constant (KD) of the antibody of the present invention binding to human SEMG2 was determined by biolayer interferometry (ForteBio Bltz or Gator instrument). […] 100 μl of SD buffer, antibody and SEMG2 were added to a 96-well black polystyrene half area microplate, respectively. Select the sensor location based on the sample location layout. KD values were analyzed using molecular interaction analysis software. In the experiments of the assays, the affinity constants of murine monoclonal antibodies and human antibodies H88-67, H88-93 and H88-96 are shown in Table 8, and the affinity and dissociation curves of SEMG2 and corresponding proteins are shown in FIG. 25.
# [11] = target: T8, SEMG2(442-453) fragment; assay: ELISA, immobilized antigen SEMG2 (442-453)
# Excerpt: as §2
# [12] = target: T9, QIAKLVEGKSQIQ; assay: ELISA, immobilized peptide QIAKLVEGKSQIQ
# [13] = target: T10, SEMG2(354-403) fragment; assay: ELISA, immobilized antigen SEMG2 (354-403)
# Excerpt: as §2
# [14] = target: T11, QIEKLVEAKSQIQ; assay: ELISA, immobilized peptide QIEKLVEAKSQIQ
# Excerpt: as §1
# [15] = target: T12, QIEALVEGKSQIQ; assay: ELISA, immobilized peptide QIEALVEGKSQIQ
# Excerpt: as §1
# [16] = target: T13, QAEKLVEGKSQIQ; assay: ELISA, immobilized peptide QAEKLVEGKSQIQ
# Excerpt: as §1
# [17] = target: T14, QIEKLVEGKAQIQ; assay: ELISA, immobilized peptide QIEKLVEGKAQIQ
# Excerpt: as §1
# [18] = target: T15, QIEKLVEGASQIQ; assay: ELISA, immobilized peptide QIEKLVEGASQIQ
# Excerpt: as §1
# [19] = target: T7, SEMG2(497-509) polypeptide QIEKLVEGKSQIQ; assay: ELISA, immobilized peptide QIEKLVEGKSQIQ
# Excerpt: as §1
# [20] = target: T16, SEMG2(563-574) fragment; assay: ELISA, immobilized antigen SEMG2 (563-574)
# Excerpt: as §2
# [21] = target: T17, BSA-conjugated human SEMG2 (497-509) …; assay: ELISA on BSA-SEMG2 (497-509), antibody titrated
# [22] = target: T18, QIEKLAEGKSQIQ; assay: ELISA, immobilized peptide QIEKLAEGKSQIQ
# Excerpt: as §1
# [23] = target: T19, QIEKLVEGKSQAQ; assay: ELISA, immobilized peptide QIEKLVEGKSQAQ
# Excerpt: as §1
# [24] = target: T17, BSA-conjugated human SEMG2 (497-509) …; assay: ELISA (FIG. 21B-D)
# [25] = target: T5, human SEMG2 full-length protein; assay: ELISA (FIG. 21B-D)
# [26] = target: T17, BSA-conjugated human SEMG2 (497-509) …; assay: ELISA on BSA-S2 (497-509); the EC50 table prints no unit, the axis is log (antibody concentration, nM)
# [27] = target: T5, human SEMG2 full-length protein; assay: ELISA on SEMG2; the EC50 table prints no unit, the axis is log (antibody concentration, nM)
binder,measurement,setting,value
B1,OD450 absorbance,[1],0.638
same,OD450 absorbance,[2],1.26
same,OD450 absorbance,[3],0.615
same,OD450 absorbance,[4],1.21
same,A450 absorbance,[5],1.17
same,EC50,[6],0.535 nM
same,OD450 absorbance,[7],0.259
same,EC50,[8],0.147 nM
same,A450 absorbance,[9],1.17
same,Kd,[10],5.28 nM
same,A450 absorbance,[11],0.009
same,binding result,[11],no binding
same,OD450 absorbance,[12],0.728
same,A450 absorbance,[13],0.008
same,binding result,[13],no binding
same,OD450 absorbance,[14],0.723
same,OD450 absorbance,[15],0.726
same,OD450 absorbance,[16],0.796
same,OD450 absorbance,[17],0.168
same,OD450 absorbance,[18],0.852
same,OD450 absorbance,[19],1.27
same,binding result,[20],no binding
same,EC50 (read off the curve),[21],~8 ng/mL
same,OD450 absorbance,[22],0.558
same,OD450 absorbance,[23],0.868
B2,fold higher affinity than the parent antibody (H88-96),[24],> 10 fold
same,fold higher affinity than the parent antibody (H88-96),[25],> 10 fold
same,EC50,[26],3.36 nM
same,EC50,[27],0.241 nM
